Measured values reported in PMC5352738, “Characterization of three pyranose dehydrogenase isoforms from the litter-decomposing basidiomycete Leucoagaricus meleagris (syn. Agaricus meleagris)” (Applied Microbiology and Biotechnology, 2016).

System: CCn1c(=N[N]c2sc3cc(S(=O)(=O)O)ccc3[n+]2CC)sc2cc(S(=O)(=O)O)ccc21
Experiment: purified protein
Conditions: pH 4.0; 30.0 °C

Substance	Km	kcat/Km
AmPDH1 (Macropsalliota meleagris)	0.0791 ± 0.009 mM	94600 M⁻¹ s⁻¹
AmPDH2 (Macropsalliota meleagris)	0.109 ± 0.010 mM	38900 M⁻¹ s⁻¹
AmPDH3 (Macropsalliota meleagris)	0.0132 ± 0.0012 mM	532000 M⁻¹ s⁻¹
